From patent US20240225985A1, “BRIGHTENING COMPOSITIONS AND METHODS OF USE” (Alastin Skincare, Inc., priority 2021, published 2024)
Entries after “also recorded” stand apart in the source; their conditions may differ.

Columns and labels:
[1] = tested on: melanocytes; assay: In vitro melanocyte comparative analysis via absorbance readings (melanin production); assay type: cell-based; settings: for Absorbance 405 nm / Absorbance 490 nm / Absorbance 492 nm: 4 days, control = 0.0 row
Experimental: Melanocytes were cultured in 6-well plates containing growth media. Once confluent, 2 concentrations of each of the 10 compounds were added to the cells in triplicate wells for 4 days. There were a total of eleven 6-well plates, one for each compound treatment and one for the vehicle control. Absorbance readings were taken on the lysates prepared for each well of the 6-well plates, normalizing for cells counts. The model was initially tested for accuracy and validated using hexapeptide-12 in view of strong gene expression results with melanocyte cell line in the first study—confirmation of decreased stimulation was obtained. Additional validation was carried out using MSH addition to media to confirm increased stimulation of melanin production. The following compounds used in this study are seen in Table 9.

[2] = tested on: hTERT-immortalized dermal melanocytes; assay: Melanocyte assay, daily inspection of cell morphology; assay type: cell-based, human; settings: both concentrations of Table 11; five-day dosing period
Experimental: Once the melanocytes were 100% confluent in 6-well plates, the melanocyte growth media was removed and the melanocytes were treated with media containing the above compounds; duplicate wells for each compound/concentration listed above. The duplicate vehicle control wells were fed melanocyte growth media only or melanocyte growth media with DMSO (10 uL per 10 mL melanocyte growth media).
The cells were fed the appropriate media for the next 5 days. Each day, the cells were inspected for morphology.

[3] = tested on: endothelial cells; assay: Gene expression of PMEL, tyrosinase genes, MC1/4R, EDNRB, MITF, ERK1/2, JNK, AKT1; assay type: cell-based; settings: after treatment of endothelial cells
Excerpt: The methods similar to Examples 3-4 were used to measure expression of PMEL, tyrosinase genes, MC1/4R, EDNRB, MITF, ERK1/2, JNK, and ANKT1.
FIGS. 10A-10D illustrates the expression of PMEL (FIG. 10A), Tyrosinase genes (FIG. 10B), MC1/4R (FIG. 10C), and EDNRB (FIG. 10D) after treatment of endothelial cells with lactoferrin (Lacto), peptide derived from lactoferrin (TCV), hexapeptide-12 (Hex12), tripeptide-1 and hexapeptide-12 (TriHex), hexapeptide-11 (Hex11), tranexamic acid (Tran acid) octapeptide (Octa), phosphatidylserine (phos), Cannabidiol (CBD), and all (total).
MITF is regulated by phosphorylation. Specifically, the MAPK and Akt pathways are known to phosphorylate MITF at certain sites. FIGS. 12A-12C illustrate the expression of ERK1/2 (MAPK3/MAPK1) (FIG. 12A), JNK (FIG. 12B), AKT1 (FIG. 12C) after treatment of endothelial cells with lactoferrin (Lacto), peptide derived from lactoferrin (TCV), hexapeptide-12 (Hex12), tripeptide-1 and hexapeptide-12 (TriHex), hexapeptide-11 (Hex11), octapeptide (Octa), phosphatidylserine (phos), Cannabidiol (CBD), and all (total).

[4] = tested on: melanocytes; assay: Gene expression study (RNA sequencing) in PGE2-induced melanocytes; assay type: cell-based, human; settings: melanocytes induced with 10 uM PGE2; 24 hours of compound exposure
Experimental: Four cell types associated with pigmentation pathways—melanocytes, keratinocytes, fibroblasts and endothelial (HUVEC) cells—were analyzed for gene expression.
To simulate the UV stimulatory pigmentation pathway process, melanocytes were pre-treated with PGE2, a normal direct consequence of UV light exposure usually emanating from exposed keratinocytes. After the 48 hour attachment culture, these melanocytes were induced with 10 uM PGE2 in melanocyte media for 24 hrs. The four primary human adult dermal cell lines were cultured and plated in well plates in triplicate and then treated with 11 different compound treatments (plus DMSO control). After 48 hours of attachment culture, the remaining fibroblasts, HUVECs and keratinocytes were treated with the test compounds listed in Table 8.
After 24 hours of compound exposure, RNA lysate preparation was carried out and samples were shipped to MedGenome for RNA extraction, library construction and sequencing to 25M paired end 100 bp reads per sample. Library prep and sequencing was completed at MedGenome.

[5] = higher concentration (Lactoferrin 1000, HEX-11 200, Phosphatidylserine 500, Silymarin 20, Sesamol 100, Tranexamic Acid 1000, HEX-12 4.9, ug/mL or ug/uL; Phytoene/Phytofluene 5.00%)
[6] = lower concentration (Lactoferrin 500, HEX-11 100, Phosphatidylserine 250, Silymarin 10, Sesamol 50, Tranexamic Acid 500, HEX-12 2.9, ug/mL or ug/uL; Phytoene/Phytofluene 2.50%)

B1: Lactoferrin: 80 kDa iron binding glycoprotein of the transferrin family (protein)
chain: APRKNVRWCTISQPEWFKCRRWQWRMKKLGAPSITCVRRAFALECIRAIAEKKADAVTLDGGMVFEACRDPYKLRPVAAEIYGTKESPQTHYYAVAVVKKGSNFQLDQLQGRKSCHTGLGRSAGWIIPMGILRPYLSWTESLEPLQGAVAKFFSASCVPCIDRQAYPNLCQLCKGEGENQCACSSREPYFGYSGAFKCLQDGAGDVAFVKETTVFENLPEKADRDQYELLCLNNSRAPVDAFKECHLAQVPSHAVVARSVDGKEDLIWKLLSKAQEKFGKNKSRSFQLFGSPPGQRDLLFKDSALGFLRIPSKVDSALYLGSRYLTTLKNLRETAEEVKARYTRVVWCAVGPEEQKKCQQWSQQSGQNVTCATASTTDDCIVLVLKGEADALNLDGGYIYTAGKCGLVPVLAENRKSSKHSSLDCVLRPTEGYLAVAVVKKANEGLTWNSLKDKKSCHTAVDRTAGWNIPMGLIVNQTGSCAFDEFFSQSCAPGADPKSRLCALCAGDDQGLDKCVPNSKEKYYGYTGAFRCLAEDVGDVAFVKNDTVWENTNGESTADWAKNLNREDFRLLCLDGTRKPVTEAQSCHLAVAPNHAVVSRSDRAAHVKQVLLHQQALFGKNGKNCPDKFCLFKSETKNLLFNDNTECLAKLGGRPTYEEYLGTEYVTAIANLKKCSTSPLLEACAFLTR
Absorbance 405 nm [1, 5]: 0.519
Absorbance 490 nm [1, 5]: 0.312
Absorbance 492 nm [1, 5]: 0.226
Absorbance 405 nm [1, 6]: 0.509
Absorbance 490 nm [1, 6]: 0.334
Absorbance 492 nm [1, 6]: 0.217
Regulation of melanogenesis (decreased absorption denoting decreased melanin formation) ([1]; melanocytes, summary of Table 10): Regulation of melanogenesis was observed
melanocyte morphology / survival on daily inspection [2]: developed a circular morphology rather the normal webbed morphology 24 hour post-initial dosing; also recorded: at 48 hours post-initial dosing, the melanocytes returned to normal morphology
melanogenic activity (expression of PMEL, tyrosinase genes, MC1/4R, EDNRB, kinases) [3]: robust melanogenic activity; also recorded: significant effects on such melanogenic activity
melanogenic gene activity in melanocytes [4]: particularly dominant in melanogenic activity; also recorded: significant effects on melanogenesis activity
